{
  "source": "patent US20240026037A1",
  "about": "(Memorial Sloan Kettering, published 2024)",
  "binders": {"B1": {"name": "Humanized A33 antibody with variable heavy chain VH1 and variable light chain VK4 (antibody, IgG1, V domains shown)", "VH": "EVQLVESGGGLVKPGGSLRLSCAASGFAFSTYDMSWVRQAPGKGLEWVSTISSGGSYTYYADSVKGRFTISRDNAKNSLYLQMNSLRAEDTAVYYCAPTTVVPFAYWGQGTLVTVSA", "VL": "DIQMTQSPSSLSASVGDRVTITCKASQNVRTVVAWYQQKPGKAPKTLIYLASNRHTGVPSRFSGSGSGTEFTLTISNLQPEDFATYYCLQHWSYPLTFGSGTKLEVK", "notes": "Mouse A33 was humanized as IgG1 and tested in IgG format; also called VH1/VK4; huA33 IgG1"}, "B2": {"name": "TC170 (bispecific antibody)", "chain": "EVQLVESGGGLVKPGGSLRLSCAASGFAFSTYDMSWVRQAPGKGLEWVSTISSGGSYTYYADSVKGRFTISRDNAKNSLYLQMNSLRAEDTAVYYCAPTTVVPFAYWGQGTLVTVSAGGGGSGGGGSGGGGSGGGGSGGGGSGGGGSDIQMTQSPSSLSASVGDRVTITCKASQNVRTVVAWYQQKPGKAPKTLIYLASNRHTGVPSRFSGSGSGTEFTLTISNLQPEDFATYYCLQHWSYPLTFGSGTKLEVKRGGGGSGGGGSGGGGSGGGGSHVQLVESGGGLVQPGGSLRLSCAASGFSLTDYGVHWVRQAPGKGLEWLGVIWSGGGTAYNTALISRFTISRDNSKNTLYLQMNSLRAEDTAVYYCARRGSYPYNYFDAWGCGTLVTVSSGGGGSGGGGSGGGGSGGGGSGGGGSGGGGSQAVVTQEPSLTVSPGGTVTLTCGSSTGAVTASNYANWVQQKPGQCPRGLIGGHNNRPPGVPARFSGSLLGGKAALTLLGAQPEDEAEYYCALWYSDHWVIGGGTKLTVLGTPLGDTTHTSGKPLDGEYFTLQIRGRERFEMFRELNEALELKDAQAGKEPGGSGGAPHHHHHH", "notes": "Single chain: anti-GPA33 scFv, anti-DOTA (C825) scFv, p53 SADA domain; The copy number 4 comes from the p53 tetramerization domain; the self-assembling and disassembling state depends on concentration; also called GPA33 SADA (TC170); GPA33xDOTA SADA"}, "B3": {"name": "BC016 (G3A H3L3) (bispecific antibody, human IgG1, kappa, N297A)", "heavy": "not shown", "light": "DIQMTQSPSSLSTSVGDRVTITCKASQNVRTVVAWYQQKPGKAPKTLIYLASNRHSGVPSRFSGSGSGTEFTLTISNLQPEDFATYYCLQHWSYPLTFGSGTKLEVKRTVAAPSVFIFPPSDEQLKSGTASVVCLLNNFYPREAKVQWKVDNALQSGNSQESVTEQDSKDSTYSLSSTLTLSKADYEKHKVYACEVTHQGLSSPVTKSFNRGECTSGGGGSGGGGSGGGGSHVQLVESGGGLVQPGGSLRLSCAASGFSLTDYGVHWVRQAPGKGLEWLGVIWSGGGTAYNTALISRFTISRDNSKNTLYLQMNSLRAEDTAVYYCARRGSYPYNYFDAWGCGTLVTVSSGGGGSGGGGSGGGGSGGGGSGGGGSGGGGSQAVVTQEPSLTVSPGGTVTLTCGSSTGAVTASNYANWVQQKPGQCPRGLIGGHNNRPPGVPARFSGSLLGGKAALTLLGAQPEDEAEYYCALWYSDHWVIGGGTKLTVLG", "notes": "GPA33xDOTA IgG-[L]-scFv; The anti-DOTA scFv is fused to the C-terminus of the light chain"}},
  "key": {"[1]": {"molecular_target": "T1, Human GPA33 (recombinant protein, Novoprotein) (human, UniProt Q99795 22-235)", "T1 construct": "Bought recombinant protein immobilized on a CM5 chip; also called GPA33 antigen; tumor antigen GPA33", "T1 sequence": "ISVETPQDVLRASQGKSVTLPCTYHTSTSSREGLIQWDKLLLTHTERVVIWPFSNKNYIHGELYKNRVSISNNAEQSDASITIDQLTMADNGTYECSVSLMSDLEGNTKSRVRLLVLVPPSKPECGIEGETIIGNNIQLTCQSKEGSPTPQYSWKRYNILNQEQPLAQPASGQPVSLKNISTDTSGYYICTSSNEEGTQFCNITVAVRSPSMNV", "assay": "SPR (Biacore), human GPA33 immobilized on CM5 chip, IgG format", "experimental": "(§1) SPR analysis. Human GPA33 (Novoprotein, Summit, NJ) was immobilized on CM5 chips. Five concentrations of 2-fold serially diluted huA33 IgG1 or huA33-BsAbs (starting at 20 nM) were flowed over the chip using a Biacore™ T100 system (GE Healthcare, Chicago, IL). Binding kinetics of huA33 were measured at 25° C. and binding kinetics of huA33-BsAbs were measured at both 25° C. and 37° C. The sensorgrams were fitted with two state binding model for both to derive kinetic parameters."}, "[2]": {"molecular_target": "T2, Human GPA33 on GPA33+ colorectal cancer cell lines (Colo 205, LS 174T, SW 1222) (human, UniProt Q99795 22-319)", "T2 construct": "Endogenous GPA33 on human colorectal cancer cell lines; also called surface human GPA33; GPA33+ tumor cell lines", "T2 sequence": "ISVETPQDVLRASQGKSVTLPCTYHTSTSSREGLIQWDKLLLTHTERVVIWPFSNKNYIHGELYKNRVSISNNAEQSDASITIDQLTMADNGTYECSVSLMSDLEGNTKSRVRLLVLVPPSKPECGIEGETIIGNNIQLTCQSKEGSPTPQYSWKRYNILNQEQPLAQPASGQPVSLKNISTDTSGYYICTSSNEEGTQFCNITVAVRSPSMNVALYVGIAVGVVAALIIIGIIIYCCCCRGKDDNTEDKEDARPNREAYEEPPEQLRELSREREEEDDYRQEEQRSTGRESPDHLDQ", "assay": "cell binding to SW1222 Luc cells; IgG format"}, "[3]": {"molecular_target": "T2, Human GPA33 on GPA33+ colorectal cancer …", "assay": "cell binding to LS174T Luc cells; IgG format"}, "[4]": {"molecular_target": "T2, Human GPA33 on GPA33+ colorectal cancer …", "assay": "FACS titration on Colo205 cells, geometric mean MFI (same value as in FIG. 4A; the text prints 0.74 nM)"}, "[5]": {"molecular_target": "T2, Human GPA33 on GPA33+ colorectal cancer …", "assay": "flow cytometry, LS 174T cells"}, "[6]": {"molecular_target": "T2, Human GPA33 on GPA33+ colorectal cancer …", "assay": "FACS titration on Colo205 cells, geometric mean MFI (the text prints 0.74 nM and calls it IC50)"}, "[7]": {"molecular_target": "T1, Human GPA33 (recombinant protein, …)", "assay": "SPR (Biacore), human GPA33 immobilized on CM5 chip, two-state fit, ka1", "experimental": "as §1"}, "[8]": {"molecular_target": "T1, Human GPA33 (recombinant protein, …)", "assay": "SPR (Biacore), human GPA33 immobilized on CM5 chip, two-state fit, kd1", "in_short": "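The off-rate (kd1) was measured by surface plasmon resonance on a Biacore T100, with recombinant human GPA33 (Novoprotein) immobilised on a CM5 chip. Antibodies were flowed over at five concentrations, 2-fold serial dilutions starting at 20 nM. The parent IgG1 was run at 25° C and bispecific formats at 25° C and 37° C. Sensorgrams were fitted with a two-state binding model to derive the kinetic parameters.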"}, "[9]": {"molecular_target": "T1, Human GPA33 (recombinant protein, …)", "assay": "SPR (Biacore), human GPA33 immobilised on the chip; reference row", "in_short": "(§2)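 Surface plasmon resonance on a Biacore system with immobilised recombinant human GPA33 (Novoprotein) was used to determine KD by kinetic fitting. The values given are each KD divided by the KD of a reference molecule.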"}, "[10]": {"molecular_target": "T2, Human GPA33 on GPA33+ colorectal cancer …", "assay": "flow cytometry, Colo 205 cells; Colo 205 cells"}, "[11]": {"molecular_target": "T2, Human GPA33 on GPA33+ colorectal cancer …", "assay": "flow cytometry, SW 1222 cells"}, "[12]": {"molecular_target": "T1, Human GPA33 (recombinant protein, …)", "assay": "SPR (Biacore), human GPA33 immobilized on CM5 chip, two-state fit", "experimental": "as §1"}, "[13]": {"molecular_target": "T2, Human GPA33 on GPA33+ colorectal cancer …", "assay": "FACS binding to SW1222 cells (GPA33+); reference row"}, "[14]": {"molecular_target": "T2, Human GPA33 on GPA33+ colorectal cancer …", "assay": "FACS binding to Colo205 cells (GPA33+); reference row"}, "[15]": {"molecular_target": "T2, Human GPA33 on GPA33+ colorectal cancer …", "assay": "FACS binding to LS174T cells (GPA33+); reference row"}, "[16]": {"molecular_target": "T1, Human GPA33 (recombinant protein, …)", "assay": "SPR (Biacore) on immobilized GPA33, 25 C per legend paragraph 44; two-state fit", "experimental": "as §1"}, "[17]": {"molecular_target": "T2, Human GPA33 on GPA33+ colorectal cancer …", "assay": "FACS titration on SW1222 cells, geometric mean MFI [Cont.]"}, "[18]": {"molecular_target": "T1, Human GPA33 (recombinant protein, …)", "assay": "SPR (Biacore), human GPA33 immobilised on the chip; two-state fit (ka1, kd1, ka2, kd2); temperature not given on the sheet", "experimental": "as §1"}, "[19]": {"molecular_target": "T1, Human GPA33 (recombinant protein, …)", "assay": "SPR (Biacore) on immobilized GPA33, 25 C per legend paragraph 44; column kd1 of the two-state fit", "experimental": "as §1"}, "[20]": {"molecular_target": "T1, Human GPA33 (recombinant protein, …)", "assay": "SPR (Biacore), human GPA33 immobilised on the chip; KD relative to that of BC015", "in_short": "as §2"}, "[21]": {"molecular_target": "T1, Human GPA33 (recombinant protein, …)", "assay": "SPR (Biacore) on immobilized GPA33, 25 C per legend paragraph 44; column ka1 of the two-state fit", "experimental": "as §1"}, "[22]": {"molecular_target": "T2, Human GPA33 on GPA33+ colorectal cancer …", "assay": "FACS titration on Colo205 cells, geometric mean MFI"}, "[23]": {"molecular_target": "T2, Human GPA33 on GPA33+ colorectal cancer …", "assay": "FACS titration on LS174T cells, geometric mean MFI [Cont.]"}},
  "data": [
    {"binder": "B1", "values": [
      {"measurement": "Kd", "setting": "[1]", "result": 0.168, "unit": "nM"},
      {"measurement": "EC50", "setting": "[2]", "result": 0.466, "unit": "µg/mL"},
      {"measurement": "EC50", "setting": "[3]", "result": 0.503, "unit": "µg/mL"}
    ]},
    {"binder": "B2", "values": [
      {"measurement": "EC50", "setting": "[4]", "result": 0.73, "unit": "nM"},
      {"measurement": "IC50", "setting": "[5]", "result": 0.31, "unit": "nM"},
      {"measurement": "EC50", "setting": "[6]", "result": 0.73, "unit": "nM"},
      {"measurement": "kon", "setting": "[7]", "result": "3.54e+06", "unit": "M⁻¹ s⁻¹"},
      {"measurement": "koff", "setting": "[8]", "result": 0.000728, "unit": "s⁻¹"},
      {"measurement": "Fold change of KD (relative to TC170, lower is better)", "setting": "[9]", "result": 1},
      {"measurement": "EC50", "setting": "[10]", "result": 0.74, "unit": "nM"},
      {"measurement": "IC50", "setting": "[11]", "result": 1.65, "unit": "nM"},
      {"measurement": "Kd", "setting": "[12]", "result": 0.0158, "unit": "nM"},
      {"measurement": "ka2", "setting": "[12]", "result": 0.00646, "unit": "s⁻¹"},
      {"measurement": "kd2", "setting": "[12]", "result": 0.000538, "unit": "s⁻¹"},
      {"measurement": "fold change of binding EC50 (relative to TC170, lower is better)", "setting": "[13]", "result": 1},
      {"measurement": "fold change of binding EC50 (relative to TC170, lower is better)", "setting": "[14]", "result": 1},
      {"measurement": "fold change of binding EC50 (relative to TC170, lower is better)", "setting": "[15]", "result": 1}
    ]},
    {"binder": "B3", "values": [
      {"measurement": "Kd", "setting": "[16]", "result": 0.00792, "unit": "nM"},
      {"measurement": "EC50", "setting": "[17]", "result": 0.35, "unit": "nM"},
      {"measurement": "Kd", "setting": "[18]", "result": 0.00792, "unit": "nM"},
      {"measurement": "koff", "setting": "[19]", "result": 0.000511, "unit": "s⁻¹"},
      {"measurement": "Fold change of KD (relative to BC015, lower is better)", "setting": "[20]", "result": 0.07},
      {"measurement": "kon", "setting": "[21]", "result": "5.5e+06", "unit": "M⁻¹ s⁻¹"},
      {"measurement": "EC50", "setting": "[22]", "result": 0.74, "unit": "nM"},
      {"measurement": "EC50", "setting": "[23]", "result": 0.65, "unit": "nM"}
    ]}
  ]
}
